Laboratory results published in publication PMC7050210 (Nature, 2020).
Read-outs that look alike come from different tables or passages of the source. Non-standard residues stand in square brackets, D forms with d. No end group written: not given here. pS = N[C@@H](COP(=O)(O)O)C(=O)O

How the values were obtained:
[1] = biological target: T1, β-TRCP1 (monomeric form, from residue 175 to C-terminus) (human, UniProt Q9Y297 175-605); experiment: cryo-EM structure
T1 sequence: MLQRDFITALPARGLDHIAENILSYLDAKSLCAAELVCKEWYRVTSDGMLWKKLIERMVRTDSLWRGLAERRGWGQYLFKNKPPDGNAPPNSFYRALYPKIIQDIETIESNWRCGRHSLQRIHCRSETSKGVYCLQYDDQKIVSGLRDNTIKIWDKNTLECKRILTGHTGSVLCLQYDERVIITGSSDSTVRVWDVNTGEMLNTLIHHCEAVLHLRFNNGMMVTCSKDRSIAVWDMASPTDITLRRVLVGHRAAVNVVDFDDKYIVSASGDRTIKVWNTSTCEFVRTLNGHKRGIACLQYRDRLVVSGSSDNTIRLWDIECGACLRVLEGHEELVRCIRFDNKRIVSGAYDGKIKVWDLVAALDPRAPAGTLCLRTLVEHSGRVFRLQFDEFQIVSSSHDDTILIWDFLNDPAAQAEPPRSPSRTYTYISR

[2] = biological target: T1, β-TRCP1 (monomeric form, from residue …); experiment: cryo-EM structure; remark: listed apart in the source

Row | Binder | binding result [1] | binding result [2]
1 | CKKERLLDDRHDSGLDSMKDEE [IκBα-derived substrate peptide with N-terminal Cys (cryo EM peptide)] | binds | 
2 | KKERLLDDRHD[pS]GLD[pS]MKDEE [IκBα-derived phosphopeptide KKERLLDDRHD(pS)GLD(pS)MKDEE] |  | binds
